We go through 30 molecules from publication PMC10681739, “High-throughput data and modeling reveal insights into the mechanisms of cooperative DNA-binding by transcription factor proteins”.

T1: ETS1 (Homo sapiens, UniProt P14921)
T1 sequence: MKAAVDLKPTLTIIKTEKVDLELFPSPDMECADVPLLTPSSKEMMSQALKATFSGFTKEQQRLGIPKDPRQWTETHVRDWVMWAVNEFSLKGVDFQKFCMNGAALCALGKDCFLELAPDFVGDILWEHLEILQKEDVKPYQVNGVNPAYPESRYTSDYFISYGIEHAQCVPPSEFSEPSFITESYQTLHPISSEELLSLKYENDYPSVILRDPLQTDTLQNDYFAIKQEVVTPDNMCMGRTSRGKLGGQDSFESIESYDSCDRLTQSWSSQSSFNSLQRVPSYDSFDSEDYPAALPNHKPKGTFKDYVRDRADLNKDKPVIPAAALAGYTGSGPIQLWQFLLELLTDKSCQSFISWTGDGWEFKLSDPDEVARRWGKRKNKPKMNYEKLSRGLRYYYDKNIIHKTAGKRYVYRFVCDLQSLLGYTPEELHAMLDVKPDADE

B1: Table S2 B row 3942 (dsDNA)
DNA 1: GAAATTTCCGCTTTCTTTCTGCAGCAGGAACCTCGG
DNA 2: CCGAGGTTCCTGCTGCAGAAAGAAAGCGGAAATTTC
B2: Table S2 B row 606 (dsDNA)
DNA 1: TCCGGAAGTCGGAGGAACACCCCAGCCGGCGCAGCC
DNA 2: GGCTGCGCCGGCTGGGGTGTTCCTCCGACTTCCGGA
B3: Table S2 B row 56 (dsDNA)
DNA 1: CAGAGAAACAGGAAGAACAGTGCTTTCAACTGAAAT
DNA 2: ATTTCAGTTGAAAGCACTGTTCTTCCTGTTTCTCTG
B4: Table S2 B row 992 (dsDNA)
DNA 1: TATCGACAAAAGTTCCGGCCCGCGGCAGCGGAGGGA
DNA 2: TCCCTCCGCTGCCGCGGGCCGGAACTTTTGTCGATA
B5: Table S2 B row 1406 (dsDNA)
DNA 1: GCACACACACATCCTCCCGGCCCGGCCGCCGCCGCT
DNA 2: AGCGGCGGCGGCCGGGCCGGGAGGATGTGTGTGTGC
B6: Table S2 B row 1819 (dsDNA)
DNA 1: CCGATTTCCCCGGACGTGGTGAGACGGCGCTTCGTC
DNA 2: GACGAAGCGCCGTCTCACCACGTCCGGGGAAATCGG
B7: Table S2 B row 1838 (dsDNA)
DNA 1: GTACGTTTCCTCATTGACTGGCCAACGACTATCATG
DNA 2: CATGATAGTCGTTGGCCAGTCAATGAGGAAACGTAC
B8: Table S2 B row 618 (dsDNA)
DNA 1: GCGCAAGGATCCGGTTTGTTCTGGTGTGGGGAGGGG
DNA 2: CCCCTCCCCACACCAGAACAAACCGGATCCTTGCGC
B9: Table S2 B row 2614 (dsDNA)
DNA 1: GGCTTCCGCGCCTGCAGAACTACAGCTCCCAGAAGG
DNA 2: CCTTCTGGGAGCTGTAGTTCTGCAGGCGCGGAAGCC
B10: Table S2 B row 1261 (dsDNA)
DNA 1: ACTCCAGAGGAAGTGGCAAGACGAGCGCGGCAACGG
DNA 2: CCGTTGCCGCGCTCGTCTTGCCACTTCCTCTGGAGT
B11: Table S2 B row 1649 (dsDNA)
DNA 1: CCCCCACATCCTGTTTGGTTAGTGGGACACCTCAAC
DNA 2: GTTGAGGTGTCCCACTAACCAAACAGGATGTGGGGG
B12: Table S2 B row 3693 (dsDNA)
DNA 1: ACCAAAACACATCCTGGGGCCCCTCACAATTAGTGA
DNA 2: TCACTAATTGTGAGGGGCCCCAGGATGTGTTTTGGT
B13: Table S2 B row 2348 (dsDNA)
DNA 1: CAAAAGTGCTTCCTCTCGAGGGGTTGTAGTTCTTAC
DNA 2: GTAAGAACTACAACCCCTCGAGAGGAAGCACTTTTG
B14: Table S2 B row 1511 (dsDNA)
DNA 1: GCACCGTGGCACTTCCGCGAGCGCCGCTGGCCCTGC
DNA 2: GCAGGGCCAGCGGCGCTCGCGGAAGTGCCACGGTGC
B15: Table S2 B row 753 (dsDNA)
DNA 1: AGGGACTTCCGGTGACCAGAGCACTAGCGCCGTAAA
DNA 2: TTTACGGCGCTAGTGCTCTGGTCACCGGAAGTCCCT
B16: Table S2 B row 3568 (dsDNA)
DNA 1: GAACCCCAAGTTCCGGCTGGCACTGCGCCGGAGCCT
DNA 2: AGGCTCCGGCGCAGTGCCAGCCGGAACTTGGGGTTC
B17: Table S2 B row 3076 (dsDNA)
DNA 1: AGGCCTCGCTTCCTCTCCTGAGCACACCCTGCAGCT
DNA 2: AGCTGCAGGGTGTGCTCAGGAGAGGAAGCGAGGCCT
B18: Table S2 B row 2482 (dsDNA)
DNA 1: TGCGACGGAAGCAGGAACTTGCTAACTACAAAACCC
DNA 2: GGGTTTTGTAGTTAGCAAGTTCCTGCTTCCGTCGCA
B19: Table S2 B row 1848 (dsDNA)
DNA 1: TCCCGGGGAGGAAGTGGCGAGAATTCGGGGGTGGGC
DNA 2: GCCCACCCCCGAATTCTCGCCACTTCCTCCCCGGGA
B20: Table S2 B row 1694 (dsDNA)
DNA 1: CCCTTCCTGAGGGCAAGGCGAGGGCACCTACAGCCT
DNA 2: AGGCTGTAGGTGCCCTCGCCTTGCCCTCAGGAAGGG
B21: Table S2 B row 1285 (dsDNA)
DNA 1: TTAAACACGGAAGTGCATCGGTTGTTGTAGTTATTC
DNA 2: GAATAACTACAACAACCGATGCACTTCCGTGTTTAA
B22: Table S2 B row 3457 (dsDNA)
DNA 1: CCACTGCCGGAAGGGGAACTCTGGGGGTGCGCGAGT
DNA 2: ACTCGCGCACCCCCAGAGTTCCCCTTCCGGCAGTGG
B23: Table S2 B row 1905 (dsDNA)
DNA 1: ACTTCCAGGAAGCCCCATAGTCCAGAAACCTACACA
DNA 2: TGTGTAGGTTTCTGGACTATGGGGCTTCCTGGAAGT
B24: Table S2 B row 269 (dsDNA)
DNA 1: AGAAAAGGAAATGGTGGGCTGCACACCCCAGCTCAC
DNA 2: GTGAGCTGGGGTGTGCAGCCCACCATTTCCTTTTCT
B25: Table S2 B row 3748 (dsDNA)
DNA 1: GATTCATATCCTCCTCTATGCAACGACAGCATCTTC
DNA 2: GAAGATGCTGTCGTTGCATAGAGGAGGATATGAATC
B26: Table S2 B row 2632 (dsDNA)
DNA 1: TACGTCACTTCCGGGCCGCCGTCCTGCAGGCAAGGG
DNA 2: CCCTTGCCTGCAGGACGGCGGCCCGGAAGTGACGTA
B27: Table S2 B row 528 (dsDNA)
DNA 1: CGAACTACATCCTCTGAGGTGTAGCTTTTTGGCCTG
DNA 2: CAGGCCAAAAAGCTACACCTCAGAGGATGTAGTTCG
B28: Table S2 B row 2398 (dsDNA)
DNA 1: GCTTTGCAGTTTCCTCTATGGAACACCAGACACAGT
DNA 2: ACTGTGTCTGGTGTTCCATAGAGGAAACTGCAAAGC
B29: Table S2 B row 1755 (dsDNA)
DNA 1: CAGAAAGAGGAAATGATGCGAGTCCACACCGAAGGC
DNA 2: GCCTTCGGTGTGGACTCGCATCATTTCCTCTTTCTG
B30: Table S2 B row 4071 (dsDNA)
DNA 1: ATGGAAATGTCGTTAAGAACTTCCTCTTTTACTAGA
DNA 2: TCTAGTAAAAGAGGAAGTTCTTAACGACATTTCCAT

This series addresses T1, ETS1. The series is described as follows: gcPBM; 1 nM ETS1. As to conditions: tags: N-terminal GST (pDEST15), kept (PMC6008103); label: surface-attached array probe.
Take B1: the binding signal was 21200 PBM fluorescence, median of replicate spots.

In the case of B2, the binding signal was 2610 PBM fluorescence, median of replicate spots.

Regarding B3, the binding signal was 2500 PBM fluorescence, median of replicate spots.

For B4, the binding signal was 1930 PBM fluorescence, median of replicate spots.

For B5, the binding signal is 2180 PBM fluorescence, median of replicate spots.

On to B6, for which the binding signal is 1790 PBM fluorescence, median of replicate spots.

As for B7, the binding signal was 2340 PBM fluorescence, median of replicate spots.

Turning to B8, the binding signal is 2310 PBM fluorescence, median of replicate spots.

Take B9: the binding signal is 2000 PBM fluorescence, median of replicate spots.

For B10, the binding signal was 2240 PBM fluorescence, median of replicate spots.

For the molecule B11, the binding signal was 23400 PBM fluorescence, median of replicate spots.

Turning to B12, the binding signal is 2280 PBM fluorescence, median of replicate spots.

With B13, the binding signal was 1960 PBM fluorescence, median of replicate spots.

As to B14, the binding signal was 2410 PBM fluorescence, median of replicate spots.

Turning to B15, the binding signal is 55700 PBM fluorescence, median of replicate spots.

Regarding B16, the binding signal is 2450 PBM fluorescence, median of replicate spots.

In the case of B17, the binding signal was 2200 PBM fluorescence, median of replicate spots.

As to B18, the binding signal is 1960 PBM fluorescence, median of replicate spots.

With B19, the binding signal is 2460 PBM fluorescence, median of replicate spots.

With B20, the binding signal is 1830 PBM fluorescence, median of replicate spots.

B21: the binding signal was 2090 PBM fluorescence, median of replicate spots.

On to B22, for which the binding signal was 2580 PBM fluorescence, median of replicate spots.

With B23, the binding signal was 2110 PBM fluorescence, median of replicate spots.

Consider B24, for which the binding signal is 1890 PBM fluorescence, median of replicate spots.

For the molecule B25, the binding signal was 2160 PBM fluorescence, median of replicate spots.

As for B26, the binding signal was 21800 PBM fluorescence, median of replicate spots.

For B27, the binding signal was 2040 PBM fluorescence, median of replicate spots.

Consider B28, for which the binding signal is 2540 PBM fluorescence, median of replicate spots.

For B29, the binding signal is 2640 PBM fluorescence, median of replicate spots.

Take B30: the binding signal was 2700 PBM fluorescence, median of replicate spots.
